Drawing on patent publication US20120258145A1, this text covers inhibitory effect on the action of stomach proteases for one substance.

The target in this test is stomach proteases of BALB/c mice. The test is described as follows: cell-based or functional assay.

In the case of “non-lipidated Omp19S polypeptide of Brucella abortus, recombinant from E. coli, with a histidine tai (from UniProt P0A3P1 22-177)”, the inhibitory effect on the action of stomach proteases was above 30%.
